Reference: PMC7737607 (The EMBO Journal, 2020)

Molecular target: T1, Cap-Gly-CC1a-p150Glued-V5 (human, UniProt Q14203-1 1-358)
T1 construct: ATUM ordered gene ID #391071; also called Cap-Gly-CC1-p150Glued-V5; p150Glued-V5-tagged fragment; source: generated and purchased from ATUM Bio, purified (streptavidin-column based methods)
Test: pull-down; purified proteins mixed 1:1, with or without FLAG-EB1 WT or ΔY C-term, 1 h at 4°C in 20 mM Tris-HCl pH 7.4, 350 mM NaCl, 1 mM 2-mercaptoethanol; p150Glued-V5 fragment captured on anti-V5 antibody-coated beads, 2 h at 4°C; Western blot
Settings: both partners purified

T1 sequence (Q14203 1-358): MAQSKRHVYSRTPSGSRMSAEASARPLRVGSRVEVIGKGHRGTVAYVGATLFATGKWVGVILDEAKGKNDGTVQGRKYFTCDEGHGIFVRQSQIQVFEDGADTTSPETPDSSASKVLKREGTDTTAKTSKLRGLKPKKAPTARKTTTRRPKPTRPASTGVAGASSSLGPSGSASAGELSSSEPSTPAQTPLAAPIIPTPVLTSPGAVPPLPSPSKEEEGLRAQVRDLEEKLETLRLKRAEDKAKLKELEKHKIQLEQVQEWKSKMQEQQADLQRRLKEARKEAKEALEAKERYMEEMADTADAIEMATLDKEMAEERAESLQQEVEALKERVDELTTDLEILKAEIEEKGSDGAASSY

binding result: binds
B1: FLAG-EB1 WT C-term (domain or fragment, human, UniProt Q15691 191-268, looked up)
chain: DEAAELMQQVNVLKLTVEDLEKERDFYFGKLRNIELICQENEGENDPVLQRIVDILYATDEGFVIPDEGGPQEEQEEY
notes: ATUM ordered gene ID #394359; also called FLAG-EB1 C-terminal; FLAG-tagged EB1 WT; source: generated and purchased from ATUM Bio, purified (streptavidin-column based methods)
